Here are results for eight molecules from article PMC9793311, “Negative cooperativity underlies dynamic assembly of the Par complex regulators Cdc42 and Par-3” (The Journal of Biological Chemistry, 2022).

First the molecules themselves.
B1: MBP-Par-3 PDZ1-APM ΔPDZ3 (domain or fragment, Drosophila melanogaster, UniProt O96782 309-987, looked up)
chain: DGEMLLIINEYGSPLGLTALPDKEHGGGLLVQHVEPGSRAERGQLRRDDRILEINGIKLIGLTESQVQEQLRRALESSELRVRVLRGDRNRRQQRDSKVADMVEVATVSPTRKPHAAPVGTSLQVANTRKLGRKIQIMLKKGPNGLGFSVTTRDNPAGAHCPIYIKNILPRGAAIEDGRLKPGDRLLEVDGTPMTGKTQTDVVAILRGMPAGATVRIVVSRQQELAEQADQPAEKSAGVAVAPSVAPPAVPAAAAPAPPIPVQKSSSARSLFTHQQQSQLNESQHFIDAGSESAASNDSLPPSSNSWSSDILDHSNSHSHSHSNSSGGSNSNGSGNNNNSSSNASDNSGATVIYLSPEKREQRCNGGGGGGSAGNEMNRWSNPVLDRLTGGICSSNSAQPSSQQSHQQQPHPSQQQQQQRRLPAAPVCSSAALRNESYYMATNDNWSPAQMHLMTAHGNTALLIEDDAEPMSPTLPARPHDGQHCNTSSANPSQNLAVGNQGPPINTVPGTPSTSSNFDATYSSQLSLETNSGVEHFSRDALGRRSISEKHHA
notes: Par-3 (Bazooka), Drosophila melanogaster, residues 309-987 with 616-741 deleted, from pMAL Par-3 309-987 Δ616-741-His; source: E. coli BL21-DE3, His-purified
B2: GST-Par-3 PDZ3 (domain or fragment, Drosophila melanogaster, UniProt O96782 616-741, looked up)
chain: HSREELTLHIPVHDTEKAGLGVSVKGKTCSNLNASGSSASSGSNGLMKHDGDLGIFVKNVIHGGAASRDGRLRMNDQLLSVNGVSLRGQNNAEAMETLRRAMVNTPGKHPGTITLLVGRKILRSAS
notes: Par-3 (Bazooka), Drosophila melanogaster, PDZ3, residues 616-741, from pGEX; source: E. coli BL21-DE3, lysate adsorbed to glutathione resin and washed; not shown: GST, N-terminal, kept
B3: GST-Cdc42^Q61L (natural protein)
chain: not shown
notes: Cdc42, Drosophila melanogaster, residues 1-191 with Q61L, from pGEX; Nucleotide state is not described; Q61L is called constitutively active; also called GST-fused Cdc42Q61L; solid phase Cdc42^Q61L; source: E. coli BL21-DE3, lysate adsorbed to glutathione resin and washed; not shown: GST, N-terminal, kept
B4: His-Par-3 BR-PDZ2 (domain or fragment, Drosophila melanogaster, UniProt O96782 426-533, looked up)
chain: PVGTSLQVANTRKLGRKIQIMLKKGPNGLGFSVTTRDNPAGAHCPIYIKNILPRGAAIEDGRLKPGDRLLEVDGTPMTGKTQTDVVAILRGMPAGATVRIVVSRQQEL
notes: Par-3 (Bazooka), Drosophila melanogaster, basic region and PDZ2, residues 426-533, from pET19; source: E. coli BL21-DE3, His-purified
B5: MBP-Par-3 PDZ1-APM ΔPDZ1 (domain or fragment, Drosophila melanogaster, UniProt O96782 393-987, looked up)
chain: LRGDRNRRQQRDSKVADMVEVATVSPTRKPHAAPVGTSLQVANTRKLGRKIQIMLKKGPNGLGFSVTTRDNPAGAHCPIYIKNILPRGAAIEDGRLKPGDRLLEVDGTPMTGKTQTDVVAILRGMPAGATVRIVVSRQQELAEQADQPAEKSAGVAVAPSVAPPAVPAAAAPAPPIPVQKSSSARSLFTHQQQSQLNESQHFIDAGSESAASNDSLPPSSNSWHSREELTLHIPVHDTEKAGLGVSVKGKTCSNLNASGSSASSGSNGLMKHDGDLGIFVKNVIHGGAASRDGRLRMNDQLLSVNGVSLRGQNNAEAMETLRRAMVNTPGKHPGTITLLVGRKILRSASSSDILDHSNSHSHSHSNSSGGSNSNGSGNNNNSSSNASDNSGATVIYLSPEKREQRCNGGGGGGSAGNEMNRWSNPVLDRLTGGICSSNSAQPSSQQSHQQQPHPSQQQQQQRRLPAAPVCSSAALRNESYYMATNDNWSPAQMHLMTAHGNTALLIEDDAEPMSPTLPARPHDGQHCNTSSANPSQNLAVGNQGPPINTVPGTPSTSSNFDATYSSQLSLETNSGVEHFSRDALGRRSISEKHHA
notes: Par-3 (Bazooka), Drosophila melanogaster, residues 393-987, from pMAL Par-3 393-987-His; source: E. coli BL21-DE3, His-purified
B6: His-Par-6 CRIB-PDZ (domain or fragment, Drosophila melanogaster, UniProt O97111 130-255, looked up)
chain: KTKAPSISIPHDFRQVSAIIDVDIVPETHRRVRLLKHGSDKPLGFYIRDGTSVRVTASGLEKQPGIFISRLVPGGLAESTGLLAVNDEVIEVNGIEVAGKTLDQVTDMMVANSSNLIITVKPANQR
notes: Par-6, Drosophila melanogaster, CRIB-PDZ, residues 130-255, from pBH; chosen because the methods name GST-Cdc42^Q61L as the solid phase; source: E. coli BL21-DE3, His-purified
B7: MBP-Par-3 PDZ1-APM (domain or fragment, Drosophila melanogaster, UniProt O96782 309-987, looked up)
chain: DGEMLLIINEYGSPLGLTALPDKEHGGGLLVQHVEPGSRAERGQLRRDDRILEINGIKLIGLTESQVQEQLRRALESSELRVRVLRGDRNRRQQRDSKVADMVEVATVSPTRKPHAAPVGTSLQVANTRKLGRKIQIMLKKGPNGLGFSVTTRDNPAGAHCPIYIKNILPRGAAIEDGRLKPGDRLLEVDGTPMTGKTQTDVVAILRGMPAGATVRIVVSRQQELAEQADQPAEKSAGVAVAPSVAPPAVPAAAAPAPPIPVQKSSSARSLFTHQQQSQLNESQHFIDAGSESAASNDSLPPSSNSWHSREELTLHIPVHDTEKAGLGVSVKGKTCSNLNASGSSASSGSNGLMKHDGDLGIFVKNVIHGGAASRDGRLRMNDQLLSVNGVSLRGQNNAEAMETLRRAMVNTPGKHPGTITLLVGRKILRSASSSDILDHSNSHSHSHSNSSGGSNSNGSGNNNNSSSNASDNSGATVIYLSPEKREQRCNGGGGGGSAGNEMNRWSNPVLDRLTGGICSSNSAQPSSQQSHQQQPHPSQQQQQQRRLPAAPVCSSAALRNESYYMATNDNWSPAQMHLMTAHGNTALLIEDDAEPMSPTLPARPHDGQHCNTSSANPSQNLAVGNQGPPINTVPGTPSTSSNFDATYSSQLSLETNSGVEHFSRDALGRRSISEKHHA
notes: Par-3 (Bazooka), Drosophila melanogaster, residues 309-987 (PDZ1 to the aPKC phosphorylation motif), from pMAL Par-3 309-987-His; also called MBP-Par-3 PDZ1-APM-His; Bazooka; source: E. coli BL21-DE3; His-purified (soluble phase) or lysate adsorbed to amylose resin and washed (solid phase); not shown: MBP, N-terminal, kept
B8: His-Par-3 PDZ2 (domain or fragment, Drosophila melanogaster, UniProt O96782 444-533, looked up)
chain: QIMLKKGPNGLGFSVTTRDNPAGAHCPIYIKNILPRGAAIEDGRLKPGDRLLEVDGTPMTGKTQTDVVAILRGMPAGATVRIVVSRQQEL
notes: Par-3 (Bazooka), Drosophila melanogaster, PDZ2, residues 444-533, from pET19; source: E. coli BL21-DE3, His-purified

Conditions in all cases: both partners purified
The target in test [1] is T1, Par complex (Drosophila melanogaster, UniProt O97111 1-351; A1Z9X0 1-606).
T1 construct: atypical PKC (aPKC), Drosophila melanogaster, residues 1-606, from pCMV aPKC; also called Par-6/aPKC; intact Par complex
T1 sequence (looked up) 1: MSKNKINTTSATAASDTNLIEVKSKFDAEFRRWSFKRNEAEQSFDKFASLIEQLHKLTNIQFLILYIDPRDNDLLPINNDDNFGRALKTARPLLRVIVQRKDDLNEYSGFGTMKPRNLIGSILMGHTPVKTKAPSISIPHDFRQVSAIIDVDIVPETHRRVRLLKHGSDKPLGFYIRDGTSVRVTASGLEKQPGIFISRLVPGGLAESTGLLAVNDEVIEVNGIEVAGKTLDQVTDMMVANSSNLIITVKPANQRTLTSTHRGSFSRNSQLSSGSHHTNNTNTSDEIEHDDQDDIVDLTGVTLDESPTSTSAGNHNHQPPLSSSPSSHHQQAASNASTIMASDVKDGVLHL
T1 sequence (looked up) 2: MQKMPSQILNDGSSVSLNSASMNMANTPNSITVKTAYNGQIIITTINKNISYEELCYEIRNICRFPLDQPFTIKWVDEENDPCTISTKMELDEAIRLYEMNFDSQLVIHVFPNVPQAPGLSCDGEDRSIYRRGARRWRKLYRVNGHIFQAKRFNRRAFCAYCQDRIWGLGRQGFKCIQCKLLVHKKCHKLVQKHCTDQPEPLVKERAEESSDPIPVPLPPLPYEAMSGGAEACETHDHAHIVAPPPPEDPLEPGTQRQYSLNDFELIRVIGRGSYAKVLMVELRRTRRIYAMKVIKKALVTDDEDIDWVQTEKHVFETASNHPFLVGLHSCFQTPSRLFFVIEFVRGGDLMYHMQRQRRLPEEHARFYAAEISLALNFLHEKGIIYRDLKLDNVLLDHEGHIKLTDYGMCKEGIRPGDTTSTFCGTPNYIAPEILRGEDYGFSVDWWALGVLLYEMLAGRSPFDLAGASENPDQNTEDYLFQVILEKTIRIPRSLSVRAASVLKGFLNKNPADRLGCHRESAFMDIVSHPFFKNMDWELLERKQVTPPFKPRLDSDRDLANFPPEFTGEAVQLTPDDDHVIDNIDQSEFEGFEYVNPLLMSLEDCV
Nature of the test: pull-down; GST-fused protein on glutathione resin (from bacterial lysate, washed 4x); soluble purified proteins added, 60 min at room temperature; 20 mM Hepes pH 7.5, 100 mM NaCl, 5 mM MgCl2, 0.5% Tween-20, 1 mM DTT, 200 uM ATP; Coomassie-stained gel.

In test [2] the target is T1, Par complex. The experiment in a line: supernatant depletion; GST-Cdc42^Q61L on GSH resin (ligand), soluble Par complex (receptor), 60 min at room temperature; 20 mM Hepes pH 7.5, 100 mM NaCl, 5 mM MgCl2, 0.5% Tween-20, 1 mM DTT, 200 uM ATP; KD from the fraction depleted at one dilution, in sextuplicate.
For the test “GST-Cdc42^Q61L”, the target named is B3. Nature of the test: supernatant depletion; Cdc42 with Par-6 CRIB-PDZ (Figure S1); the text does not say which of the two was on the resin; buffer as for the other supernatant depletion assays.
Test [3] deals with T1, Par complex. Nature of the test: supernatant depletion; MBP-Par-3 PDZ1-APM on amylose resin (ligand), soluble Par complex (receptor), 10 min at room temperature; 20 mM Hepes pH 7.5, 100 mM NaCl, 5 mM MgCl2, 0.5% Tween-20, 1 mM DTT, 200 uM ATP; KD from the fraction depleted at one dilution, in sextuplicate.

Sequence of GST-Cdc42^Q61L (P40793 whole entry Q61L, the tested form may be a part): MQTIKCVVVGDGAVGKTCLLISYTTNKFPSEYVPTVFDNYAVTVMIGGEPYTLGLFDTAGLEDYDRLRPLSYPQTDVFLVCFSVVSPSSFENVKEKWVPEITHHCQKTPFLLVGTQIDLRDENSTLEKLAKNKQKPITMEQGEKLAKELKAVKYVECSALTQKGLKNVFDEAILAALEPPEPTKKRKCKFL

Consider B1, for which the binding result with Par complex [1] is on record as “binds”.
As to B2, in the test with Par complex [1], the binding result is “binds”.
Broadly, the Kd is the concentration at which binding is half-saturated. B3 displayed a Kd with Par complex [2] of 5400 nM.
As to B4, in the test with Par complex [1], the binding result is recorded as “binds”.
On to B5, for which the binding result with Par complex [1] is “binds”.
B6: binding with GST-Cdc42^Q61L was put at a Kd of 2300 nM. This counts as single-digit micromolar.
In the test with Par complex [3], B7 gave a Kd of 600 nM. This counts as sub-micromolar.
As to B8, the binding result with Par complex [1] was “binds”.
